Laboratory results reported in the nanobody polyreactivity screen of Harvey et al. (2022).

Assay: yeast display, Sf9 membrane polyspecificity reagent, FACS + sequencing; frameworks hold sequencing errors
Method in brief: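 Polyreactivity labels are assigned by the sorting gate from which each nanobody was recovered. The gates were low and high (top ~1%), set on anti-HA fluorescence for expression and streptavidin fluorescence for reagent binding. Before sorting, galactose-induced (36–48 hours) yeast display cells were stained for 1 hour at 4 °C with 10% biotinylated, detergent-solubilized Sf9 membrane reagent.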

In the case of “QVQLVESGGGLVQAGGSLRLSCAASGSIFGYYAMGWYRQAPGKERELVAAIRVSGGRTYYADSVKGRFTISRDNAKNTVYLQMNSLKPEDTAVYYCAKSLIPAYEYWGQGTQVTVSS”, the “polyreactivity (PSR sort gate)” value is reported as “high polyreactivity”.
For “QVQLVESGGGLVQAGGSLRLSCAASGSIFGYYAMGWYRQAPGKERELVAAISGNGGNTYYADSVKGRFTISRDNAKNTVYLQMNSLKPEDTAVYYCNRAPGYRGGRYDYWGQGTQVTVSS”, the “polyreactivity (PSR sort gate)” value was “high polyreactivity”.
With “QVQLVESGGGLVQAGGSLRLSCAASGSIFGYYAMGWYRQAPGKERELVAAISRRGGSTYYADSVKGRFTISRDNAKNTVYLQMNSLKPEDTAVYYCAAVGGYASYFHLYYYWGQGTQVTVSS” the “polyreactivity (PSR sort gate)” value was “high polyreactivity”.
With “QVQLVESGGGLVQAGGSLRLSCAASGSIFGYYAMGWYRQAPGKERELVAAISSSGASTYYADSVKGRFTISRDNAKNTVYLQMNSLKPEDTAVNYCNAARRYPTRGGYWGQGTQVTVSS” the “polyreactivity (PSR sort gate)” value was “high polyreactivity”.
For “QVQLVESGGGLVQAGGSLRLSCAASGSIFGYYAMGWYRQAPGKERELVAAISWSDGSTYYADSVKGRFTISRDNAKNTVYLQMNMLKPEDTAVYYCAARFTPYITSDDGHYDYWGQGTQVTVSS”, the “polyreactivity (PSR sort gate)” value was “low polyreactivity”.
With “QVQLVESGGGLVQAGGSLRLSCAASGSIFGYYAMGWYRQAPGKERELVAAISWSGGSTYYADSVKGRFTISRDTAKNTVYLQMNSLKPEDTAVYYCAATSRGNDSQKYYYWGQGTQVTVSS” the “polyreactivity (PSR sort gate)” value was “low polyreactivity”.
For “QVQLVESGGGLVQAGGSLRLSCAASGSIFGYYAMGWYRQAPGKERELVAAISYGGGRTYYADSVKGRFTISRDNAKNTVYLQMNSLKPEDTAVYYCAADVQSRYVGEGDYWGQGTQVTVSS”, the “polyreactivity (PSR sort gate)” value was “high polyreactivity”.
In the case of “QVQLVESGGGLVQAGGSLRLSCAASGSIFGYYAMGWYRQAPGKERELVAAITRVSSTNYADSVKGRFTISRDNAKYTVYLHMNSLKPEDTAVYYCAARTLRYYQGNTWGDDYWGQGTQVTVSS”, the “polyreactivity (PSR sort gate)” value is reported as “high polyreactivity”.
With “QVQLVESGGGLVQAGGSLRLSCAASGSIFGYYAMGWYRQAPGKERELVAAITSGGNTYYADSVKGRFTISRDNAKNTVYLQMNSLKPEDTAVSYCAAEFWYTYPYLVDYWGQGTQVTVSS” the “polyreactivity (PSR sort gate)” value was “low polyreactivity”.
With “QVQLVESGGGLVQAGGSLRLSCAASGSIFGYYAMGWYRQAPGKERELVAAITTRGGRTYYADSVKGRFTISRDNAKNTVYFQINSLKPEDTAVYYCAARTGRGRYDYWGQGTQVTVSS” the “polyreactivity (PSR sort gate)” value was “high polyreactivity”.
For “QVQLVESGGGLVQAGGSLRLSCAASGSIFGYYAMGWYRQAPGKERELVAAIWRGDNTYYADSVKGRFTISRDNAKNTVYLQMNSLKPEDTAVYYCAARYWSRRIFREGYWGQGTQVTVSS”, the “polyreactivity (PSR sort gate)” value was “low polyreactivity”.
With “QVQLVESGGGLVQAGGSLRLSCAASGSIFGYYAMGWYRQAPGKERELVAVIRRSSGSTYYADSVKGRITISRDNAKKTVYLQMNSLKPEDTAVFYCASRRYEPIIWHSMDYWGQGTQVTVSS” the “polyreactivity (PSR sort gate)” value was “low polyreactivity”.
For “QVQLVESGGGLVQAGGSLRLSCAASGSIFGYYAMGWYRQAPGNERELVAAISFSAGNTYYADSVKGRFTISRDNAKNTVYLQMNSLKPEDSAVYYCAADPKYWTGWIWTSGYDYWGQGTQVTVSS”, the “polyreactivity (PSR sort gate)” value was “high polyreactivity”.
With “QVQLVESGGGLVQAGGSLRLSCAASGSIFGYYTMGLYRQAPGKERELVATINWSGGSTYYADSVKGRFTISRDNAKNTVYLQMNSLKPEDTAVYYCAKTRPYLRYWDSSTYDYWGQGTQVTVSS” the “polyreactivity (PSR sort gate)” value was “high polyreactivity”.
In the case of “QVQLVESGGGLVQAGGSLRLSCAASGSIFGYYTMGWYRQAPGKERELVARISSSGARTYYADSVKGRFTISRDNAKNTVYLQMNSLKPEDTAVYYCNAQFGYRTIYYISQYYEYGYWGQGTQVTVSS”, the “polyreactivity (PSR sort gate)” value is reported as “high polyreactivity”.
For “QVQLVESGGGLVQAGGSLRLSCAASGSIFGYYVMGWYRQAPGKERELVAAISRSGGSTYYADSVKGRFTISRDNAKNTVYLQMNSLIPEATAVYYCAARGTAERDYWGQGNQVTVSS”, the “polyreactivity (PSR sort gate)” value was “high polyreactivity”.
In the case of “QVQLVESGGGLVQAGGSLRLSCAASGSIFGYYVMGWYRQAPGKERELVAAITRSGSTYYADSVKGRFTISRDNAKNTVYLQMNSLKPEDTAVYYCAADGSYYWYPHTTYDYWGQGTQVTVSS”, the “polyreactivity (PSR sort gate)” value is reported as “low polyreactivity”.
In the case of “QVQLVESGGGLVQAGGSLRLSCAASGSIFHDYAMGWYRQAAGKERELVAVISTSGGSTYYADSVKGRFTISRDNAKNTVYLQMNSLKPEDTAVYYCAADPFDGYSSSEYDYWGQGTQVTVSS”, the “polyreactivity (PSR sort gate)” value is reported as “low polyreactivity”.
With “QVQLVESGGGLVQAGGSLRLSCAASGSIFHIYAMGWYRQAPGKERELVAAISSGGRTNYADSVKGRFTISRDNAKNTVYLQMNSLKPEDTEVYYCAADWIYLPTRNYRVRVDYWGQGTQVTVSS” the “polyreactivity (PSR sort gate)” value was “high polyreactivity”.
With “QVQLVESGGGLVQAGGSLRLSCAASGSIFHKYTMGWYRQAPGKERELVAAITRSGGSTYYADSVNGRFTISRDNAKNTVYLQMNSLKAEDTAVYYCNKRYIPWAYDYWGQGTKVTVSS” the “polyreactivity (PSR sort gate)” value was “high polyreactivity”.
With “QVQLVESGGGLVQAGGSLRLSCAASGSIFHNYDMGCYRQAPGKERELVADISRGGDTNYADSVKGRFTISRDNAKNTVYLQMNSLKPEDTAVYYCSADSADPTEYDYWGQGTQVTVSS” the “polyreactivity (PSR sort gate)” value was “low polyreactivity”.
In the case of “QVQLVESGGGLVQAGGSLRLSCAASGSIFHSNAMGWYRQAPGKERELVAAISASGGSTYYADSVKGRFTISRDNAKNTVYLQMNSLKPEDTAVYYCNAVSRYYRFSPYYYWGQGTQVTVSS”, the “polyreactivity (PSR sort gate)” value is reported as “high polyreactivity”.
With “QVQLVESGGGLVQAGGSLRLSCAASGSIFHVNAMGWYRQAPGKERELVADISKRGASTYYADSVKGRFTISRDNAKNTVYLQMNSLKPEDTAVYYCAARVVTPRRQWYTYDYWGQGTQVTVSS” the “polyreactivity (PSR sort gate)” value was “high polyreactivity”.
With “QVQLVESGGGLVQAGGSLRLSCAASGSIFHWYAMGWYRQAPGKERELVAAINWSGGSTYYADSVKGRFTISRDNAKNTVYLQMNSLKPEDTAVYYCNKAYVSRYDYWGQGTQVTVSS” the “polyreactivity (PSR sort gate)” value was “high polyreactivity”.
With “QVQLVESGGGLVQAGGSLRLSCAASGSIFHYNSMGWDRQAPGKEWGLVASMSSGGRTYYADSVKGRFTISRDNPKNTVYLQMNSLKPDDTAVYYCAAEYYQTTYVWWTYDYYGGQGTQVTVSS” the “polyreactivity (PSR sort gate)” value was “low polyreactivity”.
For “QVQLVESGGGLVQAGGSLRLSCAASGSIFHYYAMGWYRQAPGKERELVAAINSTGGSRTYYADSVKGRFTISRDNAKNTVYLRMNCLKPEDTAVYYCAADYRVVWRAYDYWGQGTQVTVSS”, the “polyreactivity (PSR sort gate)” value was “low polyreactivity”.
For “QVQLVESGGGLVQAGGSLRLSCAASGSIFHYYAMGWYRQAPGKERELVAAISSVGSTYYADSVKGRFTISRDNAKNTVYLQINSLKPEDTAVYYCAAEAYAKRYVDRYSWYYYWGQGTQVTVSS”, the “polyreactivity (PSR sort gate)” value was “high polyreactivity”.
With “QVQLVESGGGLVQAGGSLRLSCAASGSIFHYYTMGWYRQAPGKERELVAGISRSGGSTYYADSVKGRFTISRDNAKNTVYLQMNSLKPEDTAVYYCAAARYPYLYAYGYWGQGTQVTVSS” the “polyreactivity (PSR sort gate)” value was “high polyreactivity”.
With “QVQLVESGGGLVQAGGSLRLSCAASGSIFIFNTMGWYRQAPGKETELVASISSSGSTYYADSVKGRFTISRANAKNTVYLQMNSLKPEDTAVYYCAADAEDRPSWPGNSEYEYWGQGTQVTVSS” the “polyreactivity (PSR sort gate)” value was “low polyreactivity”.
In the case of “QVQLVESGGGLVQAGGSLRLSCAASGSIFIGYAMGWYRQAPGKERELVAAISQSGGRTYYADSVKGRFTISRDNAKNTVYLQMNSLKPEDTAVYYCNKVTKSYFIYDYWGQGTQVTVSS”, the “polyreactivity (PSR sort gate)” value is reported as “high polyreactivity”.
For “QVQLVESGGGLVQAGGSLRLSCAASGSIFIGYAMGWYRQAPGKERELVAAITSAGSTYADSVKGRFTISRDNAKNTGYLQRNSVKPEDTAVYYCAARFFLVTLDYWGQGTQVTVSS”, the “polyreactivity (PSR sort gate)” value was “low polyreactivity”.
In the case of “QVQLVESGGGLVQAGGSLRLSCAASGSIFIINAMGWYIQAPGKERELVAAINNGVNTYYADSVKGRFTISRDNAKNTVYLQMNSLKPEDTAVYYCAADYGDPRVNEYDYWGQGTQVTVSS”, the “polyreactivity (PSR sort gate)” value is reported as “low polyreactivity”.
With “QVQLVESGGGLVQAGGSLRLSCAASGSIFIINAMGWYRQAPGKERELVAAITTSGGRTYYADSVKGRFTISRDNAKNTVYLQMNSLKPEDTAVYSCASSHYGSTGNYWGQGTQVTVSS” the “polyreactivity (PSR sort gate)” value was “low polyreactivity”.
For “QVQLVESGGGLVQAGGSLRLSCAASGSIFIINTMGWYRQAPGKERELVAAISWGGTDTNYADSVKGRFTISRDNAKNTVYLQMNSLKPEDTAVYYCNTDQDLVRSYDYWGHGTQVTVSS”, the “polyreactivity (PSR sort gate)” value was “low polyreactivity”.
In the case of “QVQLVESGGGLVQAGGSLRLSCAASGSIFIQYAMGWYRQAPGKERELVAAINSSGGRTYYADSVKGRFTISRDNAKNTVYLQMNSLKPEDTAVYYCAADHGSSFDWGQGTQVTVSS”, the “polyreactivity (PSR sort gate)” value is reported as “low polyreactivity”.
In the case of “QVQLVESGGGLVQAGGSLRLSCAASGSIFIRNAKGWYRQAPGKERELVAAISTIGGRTYYADSVKGRFTISRDNAKNTVYLQMNSLKPEDTAVYYCAAEQGTPSTNWYDYWGQGTQVTVSS”, the “polyreactivity (PSR sort gate)” value is reported as “low polyreactivity”.
With “QVQLVESGGGLVQAGGSLRLSCAASGSIFIRNAMGWYRQAPGKERELVAAISTIGGRTYYADSVKGRFTISRDNAKNTVYLQMNSLNPEDTAVYYCAAEQGTPSTNWYDYWGQGTQVTVSS” the “polyreactivity (PSR sort gate)” value was “low polyreactivity”.
In the case of “QVQLVESGGGLVQAGGSLRLSCAASGSIFISYAKGWYRQAPGKERELVAAINYSGGSTYYADSVKGRFTISRDNAKNTVYLQMNSLKPEDTAVYYCAKRSTYRYYGYKLRDYWGQVTQVTVSS”, the “polyreactivity (PSR sort gate)” value is reported as “low polyreactivity”.
With “QVQLVESGGGLVQAGGSLRLSCAASGSIFISYAMGWYRQAPGKERELVAAISSGGSTNYADSVKGRFTISRDNAKNTVYLQMNSLKPEDTAVYYCAADGWLLSFTGDGWWFDYWGQGTQVTVSS” the “polyreactivity (PSR sort gate)” value was “low polyreactivity”.
In the case of “QVQLVESGGGLVQAGGSLRLSCAASGSIFITYAMGWYRQAPGKERELVAAIRDSGDRTYYADSVKGRFTISRDNAKNTVYLQMNSLKPEDTAVYFCNARWQEPLKYDYWGQGTQVTVSS”, the “polyreactivity (PSR sort gate)” value is reported as “low polyreactivity”.
In the case of “QVQLVESGGGLVQAGGSLRLSCAASGSIFITYAMGWYRQAPGKERELVAAITWRGGSTYYADSVKGRFTISRDNAKNTVYLQMNSLKPEDTAVYYCAAEDFYYRSQYRYWYDYWGQGTQVTVSS”, the “polyreactivity (PSR sort gate)” value is reported as “high polyreactivity”.
With “QVQLVESGGGLVQAGGSLRLSCAASGSIFITYVMGWSRQAPGKERELVAGISRSGGSTYYADSVKGRFTISRYNAKNTVYLQMNSLKPEDTAVYYCAAFFLRRPGSSGLRLLGQGTQVTVSS” the “polyreactivity (PSR sort gate)” value was “high polyreactivity”.
With “QVQLVESGGGLVQAGGSLRLSCAASGSIFIVNAMGWNRQAPGKERELVAAISWSGGSTYYADSVKGRFTISRDNAKNTVYLQMNSLKPEDTAVYYCAAKYTLPFRDVKYYSWGQGTQVTVSS” the “polyreactivity (PSR sort gate)” value was “high polyreactivity”.
